Experimental data: US20240261333A1, “NOVEL TARGETS FOR ENHANCING ANTI-TUMOR IMMUNITY” (THE BROAD INSTITUTE, INC., priority 2021, published 2024)

Experiments:
CPT1A (human) = CPT1A (human) (UniProt P50416); test: co-IP with anti-FLAG, N-FLAG B3GNT2, mass spectrometry
EMILIN1 (human) = EMILIN1 (human) (UniProt Q9Y6C2); test: as above
HBB (human) = HBB (human) (UniProt P68871); test: as above
HNRNPH1 (human) = HNRNPH1 (human) (UniProt P31943); test: as above
IL13RA2 (human) = IL13RA2 (human) (UniProt Q14627); test: as above
MAP4 (human) = MAP4 (human) (UniProt P27816); test: as above
MMP14 (human) = MMP14 (human) (UniProt P50281); test: as above
[1] = target: P0AA25.2 [thioredoxin: P0AA25]; test: as above
PPFIBP1 (human) = PPFIBP1 (human) (UniProt Q86W92); test: as above
PSMB5 (human) = PSMB5 (human) (UniProt P28074); test: as above
RACK1 (human) = RACK1 (human) (UniProt P63244); test: as above
RHOT2 (human) = RHOT2 (human) (UniProt Q8IXI1); test: as above
RPL17 (human) = RPL17 (human) (UniProt P18621); test: as above
RPL28 (human) = RPL28 (human) (UniProt P46779); test: as above
RPL8 (human) = RPL8 (human) (UniProt P62917); test: as above
RPS27A (human) = RPS27A (human) (UniProt P62979); test: as above
SERPINB3 (human) = SERPINB3 (human) (UniProt P29508); test: as above
TELO2 (human) = TELO2 (human) (UniProt Q9Y4R8); test: as above
XPOT (human) = XPOT (human) (UniProt O43592); test: as above
C1orf68 (human) = C1orf68 (human) (UniProt Q5T750); test: co-IP, anti-FLAG, lysate of cells with N-FLAG B3GNT2; mass spectrometry
CAT (human) = CAT (human) (UniProt P04040); test: as above
GGCT (human) = GGCT (human) (UniProt O75223); test: as above
HSPA8 (human) = HSPA8 (human) (UniProt P11142); test: as above
HUWE1 (human) = HUWE1 (human) (UniProt Q7Z6Z7); test: as above
MOV10 (human) = target: T1, MOV10 (human) (UniProt Q9HCE1); test: as above
T1 sequence (looked up): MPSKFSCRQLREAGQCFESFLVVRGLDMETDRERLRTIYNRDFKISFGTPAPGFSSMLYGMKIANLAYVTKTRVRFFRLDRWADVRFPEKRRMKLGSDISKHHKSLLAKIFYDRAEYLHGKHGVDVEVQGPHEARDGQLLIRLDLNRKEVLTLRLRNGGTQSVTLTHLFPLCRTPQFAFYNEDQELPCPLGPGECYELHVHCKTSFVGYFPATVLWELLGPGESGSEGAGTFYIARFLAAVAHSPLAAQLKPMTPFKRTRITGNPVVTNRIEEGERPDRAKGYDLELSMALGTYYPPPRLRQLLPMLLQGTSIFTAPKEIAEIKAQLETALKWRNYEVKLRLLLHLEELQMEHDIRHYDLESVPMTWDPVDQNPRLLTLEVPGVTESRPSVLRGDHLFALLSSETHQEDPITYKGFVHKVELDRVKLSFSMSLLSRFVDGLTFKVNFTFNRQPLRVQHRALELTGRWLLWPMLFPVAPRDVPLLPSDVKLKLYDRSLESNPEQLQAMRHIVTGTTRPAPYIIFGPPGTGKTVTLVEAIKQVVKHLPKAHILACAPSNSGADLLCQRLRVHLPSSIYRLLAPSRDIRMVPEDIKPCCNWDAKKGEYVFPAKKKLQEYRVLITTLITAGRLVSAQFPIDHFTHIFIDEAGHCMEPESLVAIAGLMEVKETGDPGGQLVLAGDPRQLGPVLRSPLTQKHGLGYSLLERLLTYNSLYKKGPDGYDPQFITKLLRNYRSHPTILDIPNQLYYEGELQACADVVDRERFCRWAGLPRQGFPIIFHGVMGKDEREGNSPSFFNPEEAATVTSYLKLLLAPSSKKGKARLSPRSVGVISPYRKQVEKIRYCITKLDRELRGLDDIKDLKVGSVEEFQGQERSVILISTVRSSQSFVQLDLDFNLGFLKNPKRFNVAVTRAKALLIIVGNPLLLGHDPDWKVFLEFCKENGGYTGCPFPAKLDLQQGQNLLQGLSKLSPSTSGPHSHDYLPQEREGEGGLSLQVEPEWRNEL

RPL13 (human) = RPL13 (human) (UniProt P26373); test: as above
SAMM50 (human) = SAMM50 (human) (UniProt Q9Y512); test: as above

Sequence of SERPINB3 (human) (P29508 whole entry): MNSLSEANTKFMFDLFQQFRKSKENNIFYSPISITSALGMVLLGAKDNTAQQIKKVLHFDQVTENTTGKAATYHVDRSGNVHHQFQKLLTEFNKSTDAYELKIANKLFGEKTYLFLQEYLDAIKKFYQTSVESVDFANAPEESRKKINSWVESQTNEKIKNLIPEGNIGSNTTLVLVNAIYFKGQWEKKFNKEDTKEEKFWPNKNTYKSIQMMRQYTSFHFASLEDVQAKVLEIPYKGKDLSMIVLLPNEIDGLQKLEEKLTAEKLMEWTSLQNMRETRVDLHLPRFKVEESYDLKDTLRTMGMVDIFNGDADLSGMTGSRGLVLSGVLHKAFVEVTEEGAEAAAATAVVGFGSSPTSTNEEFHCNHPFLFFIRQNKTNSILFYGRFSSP
Sequence of PPFIBP1 (human) (Q86W92 other isoform, or with tags, fused parts or gaps limits assumed): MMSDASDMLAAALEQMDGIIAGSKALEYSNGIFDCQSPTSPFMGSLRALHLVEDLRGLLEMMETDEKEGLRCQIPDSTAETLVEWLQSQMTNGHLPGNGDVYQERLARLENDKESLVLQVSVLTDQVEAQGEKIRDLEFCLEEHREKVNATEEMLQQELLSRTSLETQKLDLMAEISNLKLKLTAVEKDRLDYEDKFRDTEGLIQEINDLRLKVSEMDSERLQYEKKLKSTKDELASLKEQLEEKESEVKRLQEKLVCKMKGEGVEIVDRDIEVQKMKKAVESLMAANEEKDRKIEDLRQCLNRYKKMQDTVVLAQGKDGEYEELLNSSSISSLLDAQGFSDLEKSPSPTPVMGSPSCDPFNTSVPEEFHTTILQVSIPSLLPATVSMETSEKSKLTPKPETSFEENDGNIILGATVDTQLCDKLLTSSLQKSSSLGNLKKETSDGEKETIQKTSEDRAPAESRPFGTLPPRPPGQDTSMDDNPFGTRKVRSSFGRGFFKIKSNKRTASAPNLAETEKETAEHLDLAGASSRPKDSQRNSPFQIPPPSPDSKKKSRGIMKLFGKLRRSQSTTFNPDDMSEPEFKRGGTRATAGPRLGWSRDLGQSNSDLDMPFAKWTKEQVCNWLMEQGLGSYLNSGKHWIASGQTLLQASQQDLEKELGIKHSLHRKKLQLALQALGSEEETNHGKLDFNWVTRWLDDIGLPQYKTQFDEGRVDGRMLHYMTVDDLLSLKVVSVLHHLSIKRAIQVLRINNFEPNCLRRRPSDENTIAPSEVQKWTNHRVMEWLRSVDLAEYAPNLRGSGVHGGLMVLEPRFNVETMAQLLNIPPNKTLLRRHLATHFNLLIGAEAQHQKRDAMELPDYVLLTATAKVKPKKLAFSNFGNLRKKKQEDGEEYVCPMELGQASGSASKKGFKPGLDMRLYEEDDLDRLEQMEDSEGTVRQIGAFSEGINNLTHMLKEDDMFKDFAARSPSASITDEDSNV
Sequence of HSPA8 (human) (P11142 2-646 limits assumed): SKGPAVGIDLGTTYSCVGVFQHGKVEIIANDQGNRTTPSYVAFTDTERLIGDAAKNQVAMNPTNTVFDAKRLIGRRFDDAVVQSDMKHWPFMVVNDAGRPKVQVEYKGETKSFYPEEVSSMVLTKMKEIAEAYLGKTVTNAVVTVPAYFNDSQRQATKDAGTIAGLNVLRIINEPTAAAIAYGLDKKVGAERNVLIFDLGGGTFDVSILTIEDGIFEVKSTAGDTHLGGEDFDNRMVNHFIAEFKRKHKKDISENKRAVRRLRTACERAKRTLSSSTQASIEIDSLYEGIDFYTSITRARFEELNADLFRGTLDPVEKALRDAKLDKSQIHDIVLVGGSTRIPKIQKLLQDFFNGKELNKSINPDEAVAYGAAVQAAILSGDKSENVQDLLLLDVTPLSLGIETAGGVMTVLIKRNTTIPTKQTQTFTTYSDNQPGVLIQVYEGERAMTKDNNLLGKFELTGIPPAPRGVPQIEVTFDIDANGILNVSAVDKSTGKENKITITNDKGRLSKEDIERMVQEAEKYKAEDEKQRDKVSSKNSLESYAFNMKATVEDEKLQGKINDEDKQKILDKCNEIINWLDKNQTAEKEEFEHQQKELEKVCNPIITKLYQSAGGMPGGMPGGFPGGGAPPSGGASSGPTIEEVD
Sequence of GGCT (human) (O75223 whole entry): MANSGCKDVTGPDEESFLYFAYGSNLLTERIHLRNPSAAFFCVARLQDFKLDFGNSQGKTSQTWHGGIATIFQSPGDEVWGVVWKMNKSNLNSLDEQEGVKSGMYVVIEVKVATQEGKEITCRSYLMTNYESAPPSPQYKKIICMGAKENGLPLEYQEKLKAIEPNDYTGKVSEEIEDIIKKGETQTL
Sequence of P0AA25.2 [thioredoxin: P0AA25] (P0AA25 2-109): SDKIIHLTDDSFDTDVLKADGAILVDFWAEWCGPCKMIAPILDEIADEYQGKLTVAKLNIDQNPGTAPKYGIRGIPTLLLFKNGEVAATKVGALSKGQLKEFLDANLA
Sequence of EMILIN1 (human) (Q9Y6C2 22-1016 limits assumed): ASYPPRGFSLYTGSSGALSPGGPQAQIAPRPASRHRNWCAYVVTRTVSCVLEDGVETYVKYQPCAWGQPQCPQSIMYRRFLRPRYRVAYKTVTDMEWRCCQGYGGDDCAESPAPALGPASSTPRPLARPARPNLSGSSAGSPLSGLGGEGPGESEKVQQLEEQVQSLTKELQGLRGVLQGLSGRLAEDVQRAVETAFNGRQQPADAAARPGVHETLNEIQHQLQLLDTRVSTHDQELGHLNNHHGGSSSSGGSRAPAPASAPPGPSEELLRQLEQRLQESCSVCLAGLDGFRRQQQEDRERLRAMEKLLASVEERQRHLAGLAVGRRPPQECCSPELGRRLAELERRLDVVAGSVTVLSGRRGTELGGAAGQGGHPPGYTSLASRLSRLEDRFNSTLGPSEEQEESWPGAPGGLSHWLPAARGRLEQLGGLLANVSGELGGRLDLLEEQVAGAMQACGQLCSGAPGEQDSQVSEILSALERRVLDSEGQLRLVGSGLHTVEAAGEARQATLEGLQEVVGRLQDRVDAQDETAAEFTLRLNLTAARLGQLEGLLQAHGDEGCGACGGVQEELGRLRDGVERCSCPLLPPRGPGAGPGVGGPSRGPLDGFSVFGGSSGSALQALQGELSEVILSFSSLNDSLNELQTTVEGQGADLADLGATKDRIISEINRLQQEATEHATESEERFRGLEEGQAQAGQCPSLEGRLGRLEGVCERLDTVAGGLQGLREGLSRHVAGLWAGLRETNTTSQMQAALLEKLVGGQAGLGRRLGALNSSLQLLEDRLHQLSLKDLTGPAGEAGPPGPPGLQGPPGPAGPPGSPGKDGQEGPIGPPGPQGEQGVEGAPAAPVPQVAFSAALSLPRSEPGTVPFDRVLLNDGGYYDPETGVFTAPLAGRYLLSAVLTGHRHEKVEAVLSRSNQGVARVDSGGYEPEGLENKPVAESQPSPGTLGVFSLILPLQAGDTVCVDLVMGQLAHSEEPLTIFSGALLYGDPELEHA
Sequence of CAT (human) (P04040 2-527 limits assumed): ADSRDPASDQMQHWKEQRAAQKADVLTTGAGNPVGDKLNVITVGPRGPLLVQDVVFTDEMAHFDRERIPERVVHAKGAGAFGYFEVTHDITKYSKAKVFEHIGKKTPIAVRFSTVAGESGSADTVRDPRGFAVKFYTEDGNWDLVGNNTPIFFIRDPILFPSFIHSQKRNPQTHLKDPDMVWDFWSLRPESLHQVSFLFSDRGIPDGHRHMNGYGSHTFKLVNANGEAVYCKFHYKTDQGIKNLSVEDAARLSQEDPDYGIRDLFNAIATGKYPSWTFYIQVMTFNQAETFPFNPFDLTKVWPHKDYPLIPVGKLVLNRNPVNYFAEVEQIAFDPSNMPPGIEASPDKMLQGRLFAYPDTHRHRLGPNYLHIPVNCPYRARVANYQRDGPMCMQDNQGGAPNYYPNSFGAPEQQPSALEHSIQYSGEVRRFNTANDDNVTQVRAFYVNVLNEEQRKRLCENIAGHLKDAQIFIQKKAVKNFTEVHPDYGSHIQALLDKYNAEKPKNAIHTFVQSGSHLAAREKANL
Sequence of HBB (human) (P68871 2-147 limits assumed): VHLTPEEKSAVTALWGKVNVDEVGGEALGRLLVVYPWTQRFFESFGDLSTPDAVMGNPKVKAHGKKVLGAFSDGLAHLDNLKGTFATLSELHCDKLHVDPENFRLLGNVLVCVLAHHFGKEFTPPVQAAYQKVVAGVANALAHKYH
Sequence of C1orf68 (human) (Q5T750 whole entry): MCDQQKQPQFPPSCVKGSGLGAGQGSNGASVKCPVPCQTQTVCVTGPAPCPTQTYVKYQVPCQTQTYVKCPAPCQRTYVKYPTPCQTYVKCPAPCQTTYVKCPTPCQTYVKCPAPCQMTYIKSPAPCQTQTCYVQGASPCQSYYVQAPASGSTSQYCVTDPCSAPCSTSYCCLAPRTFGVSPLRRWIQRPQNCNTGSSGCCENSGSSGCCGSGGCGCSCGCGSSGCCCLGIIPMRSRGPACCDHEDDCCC
Sequence of IL13RA2 (human) (Q14627 27-380 limits assumed): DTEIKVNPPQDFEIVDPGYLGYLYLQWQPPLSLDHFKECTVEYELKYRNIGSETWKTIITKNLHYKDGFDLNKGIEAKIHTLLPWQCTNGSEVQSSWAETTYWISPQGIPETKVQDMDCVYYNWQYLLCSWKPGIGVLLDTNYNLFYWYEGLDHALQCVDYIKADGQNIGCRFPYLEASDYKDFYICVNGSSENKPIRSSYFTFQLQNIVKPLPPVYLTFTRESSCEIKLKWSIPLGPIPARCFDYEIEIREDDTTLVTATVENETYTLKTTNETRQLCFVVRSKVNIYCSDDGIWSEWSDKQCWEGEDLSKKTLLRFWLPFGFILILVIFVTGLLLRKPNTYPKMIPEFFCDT
Sequence of PSMB5 (human) (P28074 60-263 limits assumed): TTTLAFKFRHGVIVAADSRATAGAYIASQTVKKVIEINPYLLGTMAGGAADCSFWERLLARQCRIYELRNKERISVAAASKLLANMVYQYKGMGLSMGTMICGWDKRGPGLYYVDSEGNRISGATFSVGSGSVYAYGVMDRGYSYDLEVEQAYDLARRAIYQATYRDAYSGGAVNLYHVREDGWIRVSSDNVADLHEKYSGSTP

## N-terminal FLAG tagged B3GNT2 (from UniProt Q9NY97 1-397) (enzyme)
CPT1A (human)
  co-IP/MS count, N-term FLAG: 2
EMILIN1 (human)
  co-IP mass spectrometry count: 2
HBB (human)
  co-IP/MS count, N-term FLAG: 4
HNRNPH1 (human)
  co-IP/MS count, N-term FLAG: 11
IL13RA2 (human)
  co-IP mass spectrometry count: 3
MAP4 (human)
  co-IP mass spectrometry count: 0
MMP14 (human)
  co-IP/MS count, N-term FLAG: 2
[1]
  co-IP/MS count, N-term FLAG: 7
PPFIBP1 (human)
  co-IP mass spectrometry count: 2
PSMB5 (human)
  co-IP/MS count, N-term FLAG: 4
RACK1 (human)
  co-IP mass spectrometry count: 2
RHOT2 (human)
  co-IP mass spectrometry count: 3
RPL17 (human)
  co-IP/MS count, N-term FLAG: 3
RPL28 (human)
  co-IP mass spectrometry count: 8
RPL8 (human)
  co-IP mass spectrometry count: 10
RPS27A (human)
  co-IP mass spectrometry count: 8
SERPINB3 (human)
  co-IP mass spectrometry count: 10
TELO2 (human)
  co-IP mass spectrometry count: 2
XPOT (human)
  co-IP/MS count, N-term FLAG: 2
C1orf68 (human)
  co-IP mass spectrometry count: 13
CAT (human)
  co-IP mass spectrometry count: 6
GGCT (human)
  co-IP mass spectrometry count: 3
HSPA8 (human)
  co-IP mass spectrometry count: 41
HUWE1 (human)
  co-IP mass spectrometry count: 3
MOV10 (human)
  co-IP mass spectrometry count: 4
RPL13 (human)
  co-IP mass spectrometry count: 15
SAMM50 (human)
  co-IP mass spectrometry count: 3
